Experimental data as given in the supplement of paper PMC6757056.
± gives the standard deviation of the averaged measurements.

B1: library; a variant is named by its letters at N, in order (parent)
chain: GCUGUCACCGGUGUAUUACCCUAGUGGUCGACCGGUCUGAUGAGUCUNNNNNNAGACGAAACAGC

Key:
hypoxanthine [1] = variants of: B1; assay: normalized RNA/DNA level with ligand (relative to sTRSVctl = 100) (log10 (% of sTRSVctl)); ligand: hypoxanthine (xanthine aptamer); higher = less ribozyme self-cleavage, higher mRNA level; settings: ligand concentration (+) RNA-Seq: 5 mM, HEK293T, reporter: mCherry (pCS4076), ligand present: yes
In short: (§1)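 Ribozyme switch library plasmids linked to reporters were introduced into HEK293T cells at 4 µg per 6-well well, with ligand, if any, added 1 h before. Total RNA was extracted with EDTA 72 h later, reverse-transcribed, amplified, barcoded and sequenced. RNA level was computed from RNA over DNA reads relative to a spiked-in non-cleaving sequence or the top sequences, then scaled and log-transformed. The top set was 25 sequences, values were ×100 and log10, and the cutoff was ≥100 DNA reads.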

hypoxanthine [2] = variants of: B1; assay: normalized RNA/DNA level without ligand (relative to sTRSVctl = 100) (log10 (% of sTRSVctl)); ligand: hypoxanthine (xanthine aptamer); higher = less ribozyme self-cleavage, higher mRNA level; settings: HEK293T, reporter: mCherry (pCS4076), ligand present: no
In short: as §1

| Variant | normalized RNA/DNA level with ligand (log10) (hypoxanthine [1]) | normalized RNA/DNA level without ligand (log10) (hypoxanthine [2]) |
| --- | --- | --- |
| GCUGUCACCGGUGUAUUACCCUAGUGGUCGACCGGUCUGAUGAGUCUUACCUCAGACGAAACAGC [UACCUC] | 1.99 ± 0.082 | 1.93 ± 0.067 |
| GCUGUCACCGGUGUAUUACCCUAGUGGUCGACCGGUCUGAUGAGUCUCACCUGAGACGAAACAGC [CACCUG] | 2.01 ± 0.064 | 1.922 ± 0.009 |
| GCUGUCACCGGUGUAUUACCCUAGUGGUCGACCGGUCUGAUGAGUCUAACCUUAGACGAAACAGC [AACCUU] | 1.9 ± 0.054 | 1.895 ± 0.0019 |
| GCUGUCACCGGUGUAUUACCCUAGUGGUCGACCGGUCUGAUGAGUCUGACCUUAGACGAAACAGC [GACCUU] | 1.95 ± 0.033 | 1.885 ± 0.015 |
| GCUGUCACCGGUGUAUUACCCUAGUGGUCGACCGGUCUGAUGAGUCUUACCUUAGACGAAACAGC [UACCUU] | 1.927 ± 0.017 | 1.89 ± 0.054 |
| GCUGUCACCGGUGUAUUACCCUAGUGGUCGACCGGUCUGAUGAGUCUCACGACAGACGAAACAGC [CACGAC] | 1.95 ± 0.028 | 1.84 ± 0.0038 |
| GCUGUCACCGGUGUAUUACCCUAGUGGUCGACCGGUCUGAUGAGUCUUACGACAGACGAAACAGC [UACGAC] | 1.9194 ± 0.00024 | 1.804 ± 0.0045 |
| GCUGUCACCGGUGUAUUACCCUAGUGGUCGACCGGUCUGAUGAGUCUCACGAGAGACGAAACAGC [CACGAG] | 1.9 ± 0.035 | 1.6 ± 0.026 |
| GCUGUCACCGGUGUAUUACCCUAGUGGUCGACCGGUCUGAUGAGUCUAACGAUAGACGAAACAGC [AACGAU] | 1.9 ± 0.028 | 1.653 ± 0.011 |
| GCUGUCACCGGUGUAUUACCCUAGUGGUCGACCGGUCUGAUGAGUCUCACGAUAGACGAAACAGC [CACGAU] | 1.95 ± 0.027 | 1.78 ± 0.043 |
| GCUGUCACCGGUGUAUUACCCUAGUGGUCGACCGGUCUGAUGAGUCUAACGCAAGACGAAACAGC [AACGCA] | 1.9072 ± 0.0004 | 1.76 ± 0.03 |
| GCUGUCACCGGUGUAUUACCCUAGUGGUCGACCGGUCUGAUGAGUCUCACGCAAGACGAAACAGC [CACGCA] | 1.92 ± 0.054 | 1.81 ± 0.041 |
| GCUGUCACCGGUGUAUUACCCUAGUGGUCGACCGGUCUGAUGAGUCUGACGCAAGACGAAACAGC [GACGCA] | 1.91 ± 0.052 | 1.82 ± 0.034 |
| GCUGUCACCGGUGUAUUACCCUAGUGGUCGACCGGUCUGAUGAGUCUCACGCCAGACGAAACAGC [CACGCC] | 1.99 ± 0.047 | 1.839 ± 0.015 |
| GCUGUCACCGGUGUAUUACCCUAGUGGUCGACCGGUCUGAUGAGUCUGACGCCAGACGAAACAGC [GACGCC] | 1.9 ± 0.04 | 1.79 ± 0.054 |
| GCUGUCACCGGUGUAUUACCCUAGUGGUCGACCGGUCUGAUGAGUCUUACGCCAGACGAAACAGC [UACGCC] | 2 ± 0.079 | 1.82 ± 0.036 |
| GCUGUCACCGGUGUAUUACCCUAGUGGUCGACCGGUCUGAUGAGUCUCACGCGAGACGAAACAGC [CACGCG] | 1.9257 ± 1.5e-05 | 1.88 ± 0.029 |
| GCUGUCACCGGUGUAUUACCCUAGUGGUCGACCGGUCUGAUGAGUCUGACGCGAGACGAAACAGC [GACGCG] | 1.872 ± 0.0041 | 1.51 ± 0.11 |
| GCUGUCACCGGUGUAUUACCCUAGUGGUCGACCGGUCUGAUGAGUCUUACGCGAGACGAAACAGC [UACGCG] | 1.893 ± 0.018 | 1.62 ± 0.069 |
| GCUGUCACCGGUGUAUUACCCUAGUGGUCGACCGGUCUGAUGAGUCUUACGCUAGACGAAACAGC [UACGCU] | 1.95 ± 0.067 | 1.846 ± 0.012 |
| GCUGUCACCGGUGUAUUACCCUAGUGGUCGACCGGUCUGAUGAGUCUCACGGAAGACGAAACAGC [CACGGA] | 1.912 ± 0.0058 | 1.8 ± 0.048 |

| Variant | normalized RNA/DNA level with ligand (log10) (hypoxanthine [1]) | normalized RNA/DNA level without ligand (log10) (hypoxanthine [2]) |
| --- | --- | --- |
| GCUGUCACCGGUGUAUUACCCUAGUGGUCGACCGGUCUGAUGAGUCUGACGGAAGACGAAACAGC [GACGGA] | 1.92 ± 0.047 | 1.683 ± 0.0063 |
| GCUGUCACCGGUGUAUUACCCUAGUGGUCGACCGGUCUGAUGAGUCUCACGGCAGACGAAACAGC [CACGGC] | 1.965 ± 0.003 | 1.87 ± 0.013 |
| GCUGUCACCGGUGUAUUACCCUAGUGGUCGACCGGUCUGAUGAGUCUGACGGCAGACGAAACAGC [GACGGC] | 1.95 ± 0.07 | 1.63 ± 0.055 |
| GCUGUCACCGGUGUAUUACCCUAGUGGUCGACCGGUCUGAUGAGUCUCACGGGAGACGAAACAGC [CACGGG] | 1.84 ± 0.033 | 1.32 ± 0.019 |
| GCUGUCACCGGUGUAUUACCCUAGUGGUCGACCGGUCUGAUGAGUCUGACGGGAGACGAAACAGC [GACGGG] | 1.885 ± 0.0056 | 1.41 ± 0.039 |
| GCUGUCACCGGUGUAUUACCCUAGUGGUCGACCGGUCUGAUGAGUCUGACGGUAGACGAAACAGC [GACGGU] | 1.95 ± 0.036 | 1.797 ± 0.0024 |
| GCUGUCACCGGUGUAUUACCCUAGUGGUCGACCGGUCUGAUGAGUCUUACGGUAGACGAAACAGC [UACGGU] | 1.847 ± 0.0077 | 1.59 ± 0.064 |
| GCUGUCACCGGUGUAUUACCCUAGUGGUCGACCGGUCUGAUGAGUCUGACGUAAGACGAAACAGC [GACGUA] | 1.92 ± 0.033 | 1.773 ± 0.0082 |
| GCUGUCACCGGUGUAUUACCCUAGUGGUCGACCGGUCUGAUGAGUCUUACGUAAGACGAAACAGC [UACGUA] | 1.88 ± 0.09 | 1.829 ± 0.004 |
| GCUGUCACCGGUGUAUUACCCUAGUGGUCGACCGGUCUGAUGAGUCUCACGUCAGACGAAACAGC [CACGUC] | 1.98 ± 0.061 | 1.971 ± 0.005 |
| GCUGUCACCGGUGUAUUACCCUAGUGGUCGACCGGUCUGAUGAGUCUGACGUCAGACGAAACAGC [GACGUC] | 1.95 ± 0.046 | 1.85 ± 0.019 |
| GCUGUCACCGGUGUAUUACCCUAGUGGUCGACCGGUCUGAUGAGUCUUACGUCAGACGAAACAGC [UACGUC] | 2.0228 ± 0.00028 | 1.94 ± 0.051 |
| GCUGUCACCGGUGUAUUACCCUAGUGGUCGACCGGUCUGAUGAGUCUCACGUGAGACGAAACAGC [CACGUG] | 1.92 ± 0.028 | 1.79 ± 0.095 |
| GCUGUCACCGGUGUAUUACCCUAGUGGUCGACCGGUCUGAUGAGUCUGACGUGAGACGAAACAGC [GACGUG] | 1.83 ± 0.095 | 1.29 ± 0.024 |
| GCUGUCACCGGUGUAUUACCCUAGUGGUCGACCGGUCUGAUGAGUCUUACGUGAGACGAAACAGC [UACGUG] | 1.86 ± 0.063 | 1.6 ± 0.009 |
| GCUGUCACCGGUGUAUUACCCUAGUGGUCGACCGGUCUGAUGAGUCUAACGUUAGACGAAACAGC [AACGUU] | 1.91 ± 0.0075 | 1.829 ± 0.017 |
| GCUGUCACCGGUGUAUUACCCUAGUGGUCGACCGGUCUGAUGAGUCUCACGUUAGACGAAACAGC [CACGUU] | 1.96 ± 0.024 | 1.864 ± 0.0061 |
| GCUGUCACCGGUGUAUUACCCUAGUGGUCGACCGGUCUGAUGAGUCUUACGUUAGACGAAACAGC [UACGUU] | 1.956 ± 0.0074 | 1.86 ± 0.042 |
| GCUGUCACCGGUGUAUUACCCUAGUGGUCGACCGGUCUGAUGAGUCUCACUACAGACGAAACAGC [CACUAC] | 1.9 ± 0.07 | 1.8 ± 0.034 |
| GCUGUCACCGGUGUAUUACCCUAGUGGUCGACCGGUCUGAUGAGUCUGACUACAGACGAAACAGC [GACUAC] | 1.94 ± 0.026 | 1.804 ± 0.0039 |
| GCUGUCACCGGUGUAUUACCCUAGUGGUCGACCGGUCUGAUGAGUCUUACUACAGACGAAACAGC [UACUAC] | 1.95 ± 0.056 | 1.926 ± 0.0063 |
